Experimental data reported in a protein production outcome set (Wang et al. 2014).

Assay: label from the status in PepcDB records
In the case of “MNIEQQLYDVVKQLIEQRYPNDWGGAAAIRVEDGTIYTSVAPDVINASTELCMETGAILEAHKFQKKVTHSICLARENEHSELKVLSPCGVCQERLFYWGPEVQCAITNAKQDIIFKPLKELQPYHWTEAYHDEMVKEWSTR”, the protein production is reported as “not failed”.
With “MNIFEQTPPNRRRYGLAAFIGLIAGVVSAFVKWGAEVPLPPRSPVDMFNAACGPESLIRAAGQIDCSRNFLNPPYIFLRDWLGLTDPNAAVYTFAGHVFNWVGVTHIIFSIVFAVGYCVVAEVFPKIKLWQGLLAGALAQLFVHMISFPLMGLTPPLFDLPWYENVSEIFGHLVWFWSIEIIRRDLRNRITHEPDPEIPLGSNR” the protein production was “failed”.
With “MNIKREQVFVWSGKIRLFHWINVIAILLLIVIGVVILNGKLFGVSTDGKILLKTIHVIVGYVFATNLIFRLIIAFIGKTYEKWGKMLPFNKGFTEELIEFTQQKRLTYKGHNPAGKLMVLALLSFMSVQMISGLVIAGTDIYYPPFGNYFIQSIAIDKDNLAVIKPYSKENIDEASYQAMRDFRKPFITAHVYSFYCLLFLIPLHIIGVIVAERRERSAIVSAMFNGYKYLPKDEPTDH” the protein production was “failed”.
With “MNILKMKKTGIFLGGVLFGTVGVKILSSDCVKKTCTRATAGALKVKDSVLETTTKIQENVEDILAEAKEINEQEDLSTSKVNVVQDTLKCEQEVLKTETIKTVEDTNSNSIKCEEIKDNVIEEKNSTCTTE” the protein production was “failed”.
With “MNILKRKTPQNIRFGEQKPKYYFHIRAFAVLLGVFFLLGVYFNWQSILEKMDDKPISAFALVGQNTFTTADDIKESLLKMGELKGFWGQDVAPIQEQIEALPWVKGAIVRKMWPNRLSIWVSEYQPVAFWNQNQFVTLDGIVFQLPSVRLTAKNLPYLGGPDYQSLKVIETWNQIYINLKSNNIMAKGINIDDRGAWQVQLDNDIVLKLGRGDWKSKLERFVTIYPQIDVPENKKIDYIDLRYTAGAAVGMVDR” the protein production was “failed”.
With “MNILLAGGSGLIGQELVRGMGEEHHYTVLGRDKDAIQKIFTTKASSLSWDELNTQDASRFDAVINLCGVNIAISRWTPKIKEEIISSRVQTTENLLHWILQQNAKPRFYCANAVGIYGLQENGDATDLTEDTAINWEHPKDYLSEVGIRWQQALQKAEEAGLPVTSTRFGVVLKKGKGFLGKLYPSFICGLGSTIGDGRQYLSWIDSEDLVNAYRFLLNHPEITGPVNVTSPNPCMQREFAKAFAKSLHRPLLLWTPAFIIHLLFGEMGDCLINHGQKVKPKRLLEAGFEFKWPDIEKALKHQYSAILEHHHHHH” the protein production was “not failed”.
With “MNIMRTAMLLAFMTALFMGVGYLVGGSNGMVIALLMAGGLNFFSYWNSDKIVLRMYGAREVDQHSSPVYYKIVSDLARRASLPQPKVYIIDNAQPNAFATGRNPQNAAVAASTGLLNQLSAEEVAGVMAHELAHIEHRDTLTMTLTATIAGAISMLGNFAFFMGGQRHSSENSHSTGAIGGLLALFVAPFAAMLVQMAISRTREYAADRRGAEICGNPLWLASALSKIAGGGHTVYNEEAEHNPATAHMFIINPLRGEGADSLFSTHPATANRIAALRRQAEEMKGARVENMGWNEKIGLHKKSSDFRDLNSGAQTSVFNEESTVQRIKKRPSWLRYGDSKRPRS” the protein production was “failed”.
For “MNINVKDIIADSHLAFLNQENETALRLARQAISLAPDNPDAYRCAGNACMSLDRYDEAIEYYRTAVKYDPDNGNRYYDLGFALASAERFSDALKNLAKAEELGCTPENLVQLYNLLGILCFDIGRYDDALVNLNKAEKLIGIDVDILKRKAVIYGIKNDIKNGLMTANQIKLVTPSEYTGYQIAFKLLVQAKRLDEAEKELERARKYASPTMDFYFDYMTLELEKYKTDNDKEHFKTALGMIEKALKTVKPTVKEVVESYINAAEIYLQLEDADRAIECLNAAQNPIWAYNNGFDVVVRNYEPVTLTEYDIEDMIEADRKKIEEQFGDYGFEEMVESIEPDEEGNRDYLTVIEDEVKSDAKEDSEVYKLDESEKVEYSSDNIDQINRLYVGAYTVKKDFEKVIEYSRKLQASENTYSVYLGKYTEANAMKELGLPDFAAKYEEIIKFFRNAMIKDPTDLTAVTFRVQCYIDIGQYDEAEQLCSLLTKEVRNSFMEKIKKAKSGGEQH”, the protein production was “failed”.
In the case of “MNIQDYPDRDMLAIDLANHLAGELEATLFTHDSATLAVAGGTTPGPVFDVLCAADLDWHRVMVLPTDERCVPQDHSRANARLIAERLLVNRAASARYLPLYLPGAEPEDCLAEVEALLTPALPLSVLVLGMGEDMHTASLFAGMPGLAAALDADAPALAVARPETQPENRITLTAPVLNGALSKHLIIYGAAKRKALERAMSMHPEEAPIAAVLDGITVHW”, the protein production is reported as “failed”.
